Measured values from the RNAGym collection of RNA variant scans (doi:10.1073/pnas.2313332121).
Variants at the floor of the assay were thinned out.

B1: TPR 5TU (parent)
chain: GGAUCUUCUCGAUCUAACAAAAAAGACAAAUCUGCCACAAAGCUUGAGAGCAUCUUCGGAUGCAGAGGCGGCAGCCUUCGGUGGCGCGAUAGCGCCAACGUUCUCAACUAUGACACGCAAAACGCGUGCUCCGUUGAAUGGAGUUUAUCAUG

Variants of: B1
Experiment: polymerase ribozyme fitness, log enrichment relative to wild type (log ratio); higher = more active; in vitro selection for triplet polymerase activity
Summary of the method: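 A single round of triplicate in vitro selection, including frozen incubation at −7 °C, was applied to PCR-built, transcribed mutant libraries of each subunit of a heterodimeric triplet polymerase ribozyme. Illumina sequencing of input and output libraries retained genotypes with ≥10 input reads and ≥1 read per output. Fitness is the base-2 logarithm of genotype enrichment divided by wild-type enrichment, from inverse-variance-weighted replicate averages.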

Row | Variant | polymerase ribozyme fitness (log ratio)
1 | GGAUGUUCUCGAUCUAACAUAAAAGACAAAUCUGUCACAAAGCUUGAGAUCAUCUUCGGAUGCAGAGGCGGCAGCCUUCGGUGGCGCGAUAGUGCCAACGUUCUCAACUAUGACACGCAAAACGCGUGCUCCGUUGAAUGGAGUUUAUCAUG [C5G A20U C35U G50U C93U] | -3.76
2 | GGAUGUUCUCGAUCUAACAAAAAAGACAAAUCUGCCACACAGCUUGAGAGCAUCUUCGGAUGCAGAGGCGACAGCCUUCGGUGGAGCGAUAGCGCCAACGUUCUCAACUAUGACACGCAAAACGCGUGCUCCGUUGAAUGGCGUUUAUCCUG [C5G A40C G71A C85A A142C A150C] | ≤ -4.2
3 | GGAUGUUCUCGUUCUAACAAAAAAGACAAAACUGCCACAAUGCUUGAGAGCAUUUACGGAUGCAGAGGCGGCAGCCUUCGGUGGCGCAAUAGCGCCAACGUUCUCAACUAUGACACGCAAAACGCGCGCUCCGUUGCAUGAAGUUUAUCAUG [C5G A12U U31A A41U C54U U56A G88A U127C A137C G141A] | ≤ -4.2
4 | GGAUGUUCUCGAUCUAACCAAAAAGACAAAUCUGCCACAAAUCUUGAGAGCAUCUUCGGAUGCAGAGGCGGCAGCCUUUGGUGGCGCGAUAGCGCCAACGUUCUUAACUAUGACACGCAAAACGCUUGCUCCGUUGAAUGGAGUUUAUCAUG [C5G A19C G42U C79U C105U G126U] | ≤ -4.2
5 | GGAUGUUCUCGAUCUAACACAAAAGACAAAUCUGCCACAAAGCUUGACAGCAUCUACGGAUACAGAGGCGGCAGCCUUCGGUGGCGCGAUAGCGCCAACGUUCUCAACUAUGACACGCAAAACGCGUGCUCCGUUGAAUGGAGUUUAUCAUG [C5G A20C G48C U56A G62A] | -4.11
6 | GGAUGUUCUCGAUCUAGCAUAAAAGACAAAUCUGCCACAAAGCUUGAGAGCAUCUUUGGAUGCAGUGGCGGCAGCCUUCGGUGGCCCGAUAGCGCCAACGUUCUCAGAUAUGACACGCAAAACGCGUGCUCCGUUGAAUGGAGUUUAUCAUG [C5G A17G A20U C57U A66U G86C A107G C108A] | ≤ -4.2
7 | GGAUGUUCUCGAUCUAACAAAACAGACAAAUCUGCCACAAAGCUUGAGAGCAUCUUCGGAUGCAGAGGCGGUAGCCUUCGGUGGCGCUAUAGCGCCAACGUUCUCAACUAUGACACGCAAAACGCGUGCUCGGUGGAAUGGAGUUUAGCAUG [C5G A23C C72U G88U C132G U135G U148G] | -3.99
8 | GGAUGUUCUCGAUCUAACAAAAAAGACAAAUCUGCCACCAAGCUUGAGAGCAUCUUCGGAUGCAGAGGCGGCAGCCUUCGGUGGCGAGAUAGCGCCAACGUUCUCAACUAUGACACGCAAAACGCAUGCUCCGUUCAAUGGAGUUUAUCAUG [C5G A39C C87A G126A G136C] | ≤ -4.2
9 | GGAUGUUCUCGAUCUAGCAAAAAAGACAAAUCUGCCACAAAGCUUGAGAGCAUCUUCGGAUGCAGAGGCGGCAGCCUUCGGUGGCGCGAUAGCGCCAACGUUCUCAACUAUGACACGCAAAACGCGUGCUCCGUUGAAUGGAGUUUAUCAUG [C5G A17G] | -0.0409
10 | GGAUGUUCUCGAUCUAACAAGAAAGACAAAUCUGCCACAAAGCUUGAGAGCAUCAUUGGAUGCAGAGGCGGCAGCCUUCGGUGGCGCGAUAGCGCCAACGUUCUCAACUAUGACACGCAAAACGCGUGCUCCGUUGAAUGGAGUUUCUCAUG [C5G A21G U55A C57U A147C] | -0.914
11 | GGAUGUUCUCGAUCUAACAAAAAAGACAGAUCUGCCACAAAGCUUUAGAGCAUCUUCGGGUGCAGAGGCGGCAGCCUUCGGUGGCGCGAUAGCGCCAACGUUCUCAACUAUGACACGCAAAACGCGUGCUCCGUUGAAUGGAGUUUAUCAUG [C5G A29G G46U A60G] | ≤ -4.2
12 | GGAUGUUCUCGAUCUAACAAAAAAGACCAAUCUGCCACAAAGCUUGAGAGCAUCUUCGGAUGCAGAGGCGGCGGCCUUCGGUGGCGCGAUAGCGCCAACGUUCUCAACUAUGACACGCAAAACGCGUGCUCCGUUGAAUGGAGUUUAUCAUG [C5G A28C A73G] | ≤ -4.2
13 | GGAUGUUCUCGAUCUAGCAAAAAAGCCAAAUCUGCCACAUAGCUUGAGAGCAUCUUCGGAUGCAGAGGCGGCAGCCUUCGGGGGCGUGAUAGCGCCAACGUUCUCAACUAUGACACGGAAAACGCGUGAUACGUUGAAUGCAGUUUAUCAUG [C5G A17G A26C A40U U82G C87U C118G C129A C131A G141C] | ≤ -4.2
14 | GGAUGUUCUCGAUCUAACAAAAAAGACAAAUCUGCCACACAGCUUGAGAGCAUCUUCGGAUGCAGAGGAUGCAGCCUUCGGUGGCGCGCUAGCGCCAACGUUCUCAACUAUGACACGCAAAACGCGUGCUCCGUUGAAUGGAGUUUAUCAUG [C5G A40C C69A G70U A89C] | ≤ -4.2
15 | GGAUGUUCUCGAUCUAACAAAAAAGACAAAUCUGCCACAAGGCUUGAGAGCAUCUUCGGAUGCAGAGGCGGCAGCCUUCGGUGGUGCGAUAGCGUCAACGUUCUCAACUAUGACACGCAAAUCGCGUGCUCAGUUGAAUGGAGUUUAUCAUG [C5G A41G C85U C95U A122U C132A] | -3.5
16 | GGAUGUUCUCGAUCUAACAAAAAAGACACAUCUGCCACAAAGCUUGCGAACAUCUUCGGAUGCAGAGGCGGCAGCCUUCGGUGGCACGAAUGCGCCAACGUUCUCAACUAUGACACGCAAAACGCGUGCUCCGUUGAAUGGACUUUAUCAUG [C5G A29C A47C G50A G86A U90A A91U G143C] | ≤ -4.2
17 | GGAUGUUCUCGAUCUAACAAAAAAGACAAAUCUGCCACGAAGCUUGAGAGCAUCUUCGGAUGCAGAGGCGGCAGCCUUCGGUGGCGCAAUAGCGCCAACGUUCUCAACUAUGACACGCAAAACGCGUGCUGCGUUGAAUGGAGUUUAUCAUG [C5G A39G G88A C131G] | ≤ -4.2
18 | GGAUGUUCUCGAUCUAACAAAUAAGACAAAUCUGCCACAAAGCUUGAGAGCAUCUUCUGUUGCUGAGGCGGCAGCCUUCGGUCGCGCGAUAGCGCCAACGUUCUCAACUAUGACACGCAAAACGCGUGCUCCGUUGAAUGGAGUUUAUCAUG [C5G A22U G58U A60U A64U G83C] | ≤ -4.2
19 | GGAUGUUCUCGAUCUAACGAAAACGACAAAUCUGCCACAUAGCUUGAGAGCAUCAUCGGAUGCAGAGGCGGCAGCCUUCGGUUGCUCGAUAGCGCCAACGUUCUCAACUAUGACACGCAAAACGCGUGCUCCGUUGAAUGGAGUUUAUCAUG [C5G A19G A24C A40U U55A G83U G86U] | ≤ -4.2
